Experimental data reported in US20260028403A1 (Zymeworks, published 2026).

B1: v37687 (trispecific antibody, human IgG1, kappa, L234A L235A)
heavy 1: not shown
heavy 2: QVQLVESGGGLVQPGGSLRLSCSVSGIDLSSNPMIWVRQAPGKGLQYIGIIDTDGSTYYADWAKGRFTISKDSTTVYLQINSPRAEDTAVYYCARRLHGSSNGYYDDLWGQGTLVTVSSGGGGSGGGGSGGGGSGGGGSDGQMTQSPSSVSASVGDRVTITCQASQSIYSYLSWYQQKPGQRPKLLIYKASTLASGVPSRFSGSGSGTDFTLTISSVQPEDFATYYCQQGYTVTNVDKNTFGGGTKVEIKAAEPKSSDKTHTCPPCPAPEAAGGPSVFLFPPKPKDTLMISRTPEVTCVVVSVSHEDPEVKFNWYVDGVEVHNAKTKPREEQYNSTYRVVSVLTVLHQDWLNGKEYKCKVSNKALPAPIEKTISKAKGQPREPQVYVLPPSRDELTKNQVSLLCLVKGFYPSDIAVEWESNGQPENNYLTWPPVLDSDGSFFLYSKLTVDKSRWQQGNVFSCSVMHEALHNHYTQKSLSLSPG
light: DIQMTQSPSSLSASVGDRVTITCRASESVEYYVTSLMQWYQQKPGKAPKLLIYAASNVDSGVPSRFSGSGSGTDFTLTISSLQPEDIATYYCQQSRKVPFTFGGGTKVEIKRTVAAPSVFIFPPSDEQLKSGTASVVCLLNNFYPREAKVQWKVDNALQSGNSQESVTEQDSKDSTYSLSSTLTLSKADYEKHKVYACEVTHQGLSSPVTKSFNRGEC
notes: also called v37638 format, CD28 VH E1080K
B2: v37689 (trispecific antibody, human IgG1, kappa, L234A L235A)
heavy 1: not shown
heavy 2: QVQLVESGGGLVQPGGSLRLSCSVSGIDLSSNPMIWVRQAPGKGLQYIGIIDTDGSTYYADWAKGRFTISKDSTTVYLQINSPRAEDTAVYYCARRLHGSSNGYYDDLWGQGTLVTVSSGGGGSGGGGSGGGGSGGGGSDGQMTQSPSSVSASVGDRVTITCQASQSIYSYLSWYQQKPGQRPKLLIYKASTLASGVPSRFSGSGSGTDFTLTISSVQPEDFATYYCQQGYTVTNVDKNTFGGGTKVEIKAAEPKSSDKTHTCPPCPAPEAAGGPSVFLFPPKPKDTLMISRTPEVTCVVVSVSHEDPEVKFNWYVDGVEVHNAKTKPREEQYNSTYRVVSVLTVLHQDWLNGKEYKCKVSNKALPAPIEKTISKAKGQPREPQVYVLPPSRDELTKNQVSLLCLVKGFYPSDIAVEWESNGQPENNYLTWPPVLDSDGSFFLYSKLTVDKSRWQQGNVFSCSVMHEALHNHYTQKSLSLSPG
light: DIQMTQSPSSLSASVGDRVTITCRASESVEYYVTSLMQWYQQKPGKAPKLLIYAASNVDSGVPSRFSGSGSGTDFTLTISSLQPEDIATYYCQQSRKVPFTFGGGTKVEIKRTVAAPSVFIFPPSDEQLKSGTASVVCLLNNFYPREAKVQWKVDNALQSGNSQESVTEQDSKDSTYSLSSTLTLSKADYEKHKVYACEVTHQGLSSPVTKSFNRGEC
notes: also called v37638 format, CD28 VH N1111aA
B3: v37692 (trispecific antibody, human IgG1, kappa, L234A L235A)
heavy 1: not shown
heavy 2: QVQLVESGGGLVQPGGSLRLSCSVSGIDLSSNPMIWVRQAPGKGLQYIGIIDTDGSTYYADWAKGRFTISKDSTTVYLQINSPRAEDTAVYYCARRLHGSSNGYYDDLWGQGTLVTVSSGGGGSGGGGSGGGGSGGGGSDGQMTQSPSSVSASVGDRVTITCQASQSIYSYLSWYQQKPGQRPKLLIYKASTLASGVPSRFSGSGSGTDFTLTISSVQPEDFATYYCQQGYTVTNVDKNTFGGGTKVEIKAAEPKSSDKTHTCPPCPAPEAAGGPSVFLFPPKPKDTLMISRTPEVTCVVVSVSHEDPEVKFNWYVDGVEVHNAKTKPREEQYNSTYRVVSVLTVLHQDWLNGKEYKCKVSNKALPAPIEKTISKAKGQPREPQVYVLPPSRDELTKNQVSLLCLVKGFYPSDIAVEWESNGQPENNYLTWPPVLDSDGSFFLYSKLTVDKSRWQQGNVFSCSVMHEALHNHYTQKSLSLSPG
light: DIQMTQSPSSLSASVGDRVTITCRASESVEYYVTSLMQWYQQKPGKAPKLLIYAASNVDSGVPSRFSGSGSGTDFTLTISSLQPEDIATYYCQQSRKVPFTFGGGTKVEIKRTVAAPSVFIFPPSDEQLKSGTASVVCLLNNFYPREAKVQWKVDNALQSGNSQESVTEQDSKDSTYSLSSTLTLSKADYEKHKVYACEVTHQGLSSPVTKSFNRGEC
notes: also called v37638 format, CD28 VH Y1113S
B4: v37688 (trispecific antibody, human IgG1, kappa, L234A L235A)
heavy 1: not shown
heavy 2: QVQLVESGGGLVQPGGSLRLSCSVSGIDLSSNPMIWVRQAPGKGLQYIGIIDTDGSTYYADWAKGRFTISKDSTTVYLQINSPRAEDTAVYYCARRLHGSSNGYYDDLWGQGTLVTVSSGGGGSGGGGSGGGGSGGGGSDGQMTQSPSSVSASVGDRVTITCQASQSIYSYLSWYQQKPGQRPKLLIYKASTLASGVPSRFSGSGSGTDFTLTISSVQPEDFATYYCQQGYTVTNVDKNTFGGGTKVEIKAAEPKSSDKTHTCPPCPAPEAAGGPSVFLFPPKPKDTLMISRTPEVTCVVVSVSHEDPEVKFNWYVDGVEVHNAKTKPREEQYNSTYRVVSVLTVLHQDWLNGKEYKCKVSNKALPAPIEKTISKAKGQPREPQVYVLPPSRDELTKNQVSLLCLVKGFYPSDIAVEWESNGQPENNYLTWPPVLDSDGSFFLYSKLTVDKSRWQQGNVFSCSVMHEALHNHYTQKSLSLSPG
light: DIQMTQSPSSLSASVGDRVTITCRASESVEYYVTSLMQWYQQKPGKAPKLLIYAASNVDSGVPSRFSGSGSGTDFTLTISSLQPEDIATYYCQQSRKVPFTFGGGTKVEIKRTVAAPSVFIFPPSDEQLKSGTASVVCLLNNFYPREAKVQWKVDNALQSGNSQESVTEQDSKDSTYSLSSTLTLSKADYEKHKVYACEVTHQGLSSPVTKSFNRGEC
notes: also called v37638 format, CD28 VH Y1110S
B5: v37691 (trispecific antibody, human IgG1, kappa, L234A L235A)
heavy 1: not shown
heavy 2: QVQLVESGGGLVQPGGSLRLSCSVSGIDLSSNPMIWVRQAPGKGLQYIGIIDTDGSTYYADWAKGRFTISKDSTTVYLQINSPRAEDTAVYYCARRLHGSSNGYYDDLWGQGTLVTVSSGGGGSGGGGSGGGGSGGGGSDGQMTQSPSSVSASVGDRVTITCQASQSIYSYLSWYQQKPGQRPKLLIYKASTLASGVPSRFSGSGSGTDFTLTISSVQPEDFATYYCQQGYTVTNVDKNTFGGGTKVEIKAAEPKSSDKTHTCPPCPAPEAAGGPSVFLFPPKPKDTLMISRTPEVTCVVVSVSHEDPEVKFNWYVDGVEVHNAKTKPREEQYNSTYRVVSVLTVLHQDWLNGKEYKCKVSNKALPAPIEKTISKAKGQPREPQVYVLPPSRDELTKNQVSLLCLVKGFYPSDIAVEWESNGQPENNYLTWPPVLDSDGSFFLYSKLTVDKSRWQQGNVFSCSVMHEALHNHYTQKSLSLSPG
light: DIQMTQSPSSLSASVGDRVTITCRASESVEYYVTSLMQWYQQKPGKAPKLLIYAASNVDSGVPSRFSGSGSGTDFTLTISSLQPEDIATYYCQQSRKVPFTFGGGTKVEIKRTVAAPSVFIFPPSDEQLKSGTASVVCLLNNFYPREAKVQWKVDNALQSGNSQESVTEQDSKDSTYSLSSTLTLSKADYEKHKVYACEVTHQGLSSPVTKSFNRGEC
notes: also called v37638 format, CD28 VH L1112aN

Experiments:
[1] = biological target: T1, CD28 on primary human T cells (human, UniProt P10747 19-220); assay: cell-based or functional assay
[2] = biological target: T1, CD28 on primary human T cells; assay: cell-based or functional assay; remark: listed apart in the source
[3] = biological target: T2, Recombinant human/cynomolgus/rhesus macaque CD28 mouse IgG2a Fc fusion protein (Acro Biosystems) (human/cynomolgus/rhesus macaque, UniProt P10747 19-152); assay: SPR, in-format anti-CD28 variants, huCD28
T2 construct: bought; also called huCD28

| Binder | IL-2 maximum cytokine, T cells alone [1] [pg/mL] | IL-2 maximum cytokine, T cells with SNU 601 cells [1] [pg/mL] | TNFa maximum cytokine, T cells alone [1] [pg/mL] | TNFa maximum cytokine, T cells with SNU 601 cells [1] [pg/mL] | IC50, T cell-dependent cytotoxicity on SNU 601 [2] [pM] | Maximum Killing (%), SNU 601 [2] [%] | Fold-change from WT [3] [fold] | Kd [3] [nM] | koff [3] [s⁻¹] | kon [3] [M⁻¹ s⁻¹] |
| --- | --- | --- | --- | --- | --- | --- | --- | --- | --- | --- |
| B1 | 170 | 4140 | 21.7 | 412 | 0.1 | 88.5 | 2.1 | 47 | 0.00475 | 101000 |
| B2 | 677 | 3210 | 58.9 | 543 | 0.12 | 93.4 | 10.8 | 239 | 0.0211 | 89600 |
| B3 | 120 | 2890 | 20.2 | 476 | 0.63 | 91.5 | 95.1 | 2110 | 0.0613 | 32200 |
| B4 | 279 | 3780 | 39.6 | 514 | 0.18 | 87.8 | 1.2 | 25.8 | 0.00253 | 97300 |
| B5 | 185 | 3360 | 33.6 | 473 | 0.08 | 91 | 4.9 | 109 | 0.0107 | 98600 |
